Data published in the nanobody polyreactivity screen of Harvey et al. (2022).

Assay: yeast display, Sf9 membrane polyspecificity reagent, FACS + sequencing; frameworks hold sequencing errors
Procedure, shortened: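 A synthetic nanobody library was expressed on Saccharomyces cerevisiae BJ5465 by galactose induction for 36–48 hours. The library was stained for 1 hour at 4 °C with 10% biotinylated, detergent-solubilized Sf9 membrane reagent and enriched with streptavidin microbeads before FACS. Low and high (top ~1%) gates were set on anti-HA fluorescence for expression and streptavidin fluorescence for reagent binding, and each polyreactivity label reflects the gate of origin.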

Sequence | polyreactivity (PSR sort gate)
QVQLVESAGGLVQAGGILRLSCAASGFTFYFYAMGWYRQSPGKERELVAAISRSGSRTYYADSVKGRFTISRDNAKNTVYLQMNSLKPEDTAVYYCARVRPRGLYFVLHYDYWGQGTQVTVSS | high polyreactivity
QVQLVESAGGLVQAGGRLLLSCAASGRIFAKYAMGWYRQAPGKERELVAAIRSTGGGTYYADSVKGRFTISRDNAKNTVYLQMNSLKPEDTAVYYCDARQTYYKYGYWGQGTQVTVSS | high polyreactivity
QVQLVESAGGLVQAGGSLRLICAASVFTFYYYTMGWYRPAPGKERELVAGISGTGGSTYYADSVKGRFTISRDNAKNTVYLQMNSLKPEDTAVYYCAAGPWYWGQGTQVTVSS | low polyreactivity
QVQLVESAGGLVQAGGSLRLRCAASGRIFTHNAMGWYRQAPGKERELVAAITSGGRTTYADSVKGRFTISRDNAKNTVYLQMNSLKPEDSAVYYCNADTGLGSLDFDKRDYWGQGTQVTVSS | low polyreactivity
QVQLVESAGGLVQAGGSLRLSCAASGAIFGGYAMGWYRQAPGKERELVAAISSSGGSTYFADSVKGRFTISRDNEKNTVYLQMNSLKPEDTAVYYCAAKYQRRYYYWGQGTQVTVSS | high polyreactivity
QVQLVESAGGLVQAGGSLRLSCAASGFIFFGNAMGWYRQAPGKERALVAVITWSGGSTYADSVKGRFTISRDNAKNPVYLQMNSLKPEDTAVYYSAADQQTWWQYSLINEYDYWGQGTQVTVTS | low polyreactivity
QVQLVESAGGLVQAGGSLRLSCAASGFIFPRYAMGWYRPAPGKERELVAAISSSGGSTYYADSVKGRFTISRDNAKNTVYLQMNSLKPEDTAVYYCAARYQSDYWRYYYWGQGTQVTVSS | high polyreactivity
QVQLVESAGGLVQAGGSLRLSCAASGGIFSRYSMGWYRQAPGKERELVAAITRSGGSTYYADSVKGRFTISRDNAKNTVYLQLNSLKPEDTAVYYCSARRRGGSKYGYWGQGTQVTVSS | high polyreactivity
QVQLVESAGGLVQAGGSLRLSCAASGICAVYARGWYRQAPGKERELVAAITLSGGSTSYADSVKGRFTISRDNAKNTVYLQMNSLNPAATEVYYCAVLIRYPYYYWGQGTQVTVSS | low polyreactivity
QVQLVESAGGLVQAGGSLRLSCAASGIIFSYYVMGWYRQAPGKERELVAAITTSGSRTYYADSVKGRFTISRDNAKITVYLQMNSLKPEVTSVYYCAAADAGLSVSSYRTYYYWGQGTQVTVSS | high polyreactivity
QVQLVESAGGLVQAGGSLRLSCAASGLIFARNSMGWYRQAPGKERELVAAISKRGGSTFYADSVKGRFTISRDNAKNTVYLQMNSLKPVDTAVYYWNARSSETWHGDYWGQGTQVTVSS | high polyreactivity
QVQLVESAGGLVQAGGSLRLSCAASGLTFYLYVMGWSRQATGKERELVAAISRRGGTTYYADSVKGRFTISRDNAKNTVYLQMNSLKPEDTAVYYCNKADAVGRDYDYWGQGTQVTVSS | high polyreactivity
QVQLVESAGGLVQAGGSLRLSCAASGLTFYRYAMGWYRQAPGKERELVAAISSADRTYYADSVKGRFTISRDNAKNTVYLQMNSLKPEDTAVYYCNARGIGRSTKWSSRDYWGQGTQVTVSS | high polyreactivity
QVQLVESAGGLVQAGGSLRLSCAASGRIFRANAMGWYRQAPGKERELVATIRNSGGITYYADSVKGRFTISRDHAKNTVYLQMNSLIPEDTAVYYCAKLGRYGYDYWGQGTQVTVSS | high polyreactivity
QVQLVESAGGLVQAGGSLRLSCAASGRIFYRYAMAWYRQAPGKERELVAAITQSGGSTFYADSVKGRFTISRDNAKNTVYLQMNSLKPEDTAVYYCNAYIPSLRGDYWGQGTQVTVSS | high polyreactivity
QVQLVESAGGLVQAGGSLRLSCAASGSIFLSNAMGWYRQAPGTERALVADIDWTGGDTYYADSVKGRFTISRDNAKNTVYLQMNSLKPEDTAFYYCAADYGYRNLLTEYGYWGQGTQVTVSS | low polyreactivity
QVQLVESAGGLVQAGGSLRLSCAASGSIFPTNTMGWYRQAPGKERELVATIRKSSGRTYYADSVKGRFTISRDNAKNTVYLQMNSLKPEDTAVYYCNARRYSGALRYDYWGQGTQVTVSS | high polyreactivity
QVQLVESAGGLVQAGGSLRLSCAASGSIFSPYAMGWYRQAPGKERELVAAITWNGGRTYYADSVKGRFTISRDNAKNTVYLHMNSLKPEDTAVYYCTAASQSRYYYWGQGTQVTVSS | high polyreactivity
QVQLVESAGGLVQAGGSLRLSCAASGSTFAYNVMGWYRQAPGKERELVASISSSSGSTYYADSVKGRFTISRDNAKNTVYLQMNSLKPEDTAVYYCATYPAYTEYDYWGQGTQVTVSS | high polyreactivity
QVQLVESAGGLVQAGGSLRLSCAASGSTFPWNAMGWDRQAPGKERELVAAISKSGGRTYYADSVKGRFTISRDNAKNTVYLQMNSLKPVDTAVYYCAKRYALSVYYRLYDYWGQGTQVTVSS | high polyreactivity
QVQLVESAGGLVQAGGSLRLSCAASGSTFTLYAMGWYRQAPGKERELVAAISWSGDSTYYADSVKGRFTISRDNAKNTVYLQMNSLKPEDTAVYYCAAENVYGYDYWGQGTQVTESS | high polyreactivity

Sequence | polyreactivity (PSR sort gate)
QVQLVESAGGLVQAGGSLRLSCAASGSTFVGYAMGWYRQAPGKERELVAAISGSGTSTYYADSVKGRFTISRDNAKNTVYLQMNSLKPEDTAVYYCNADPIFVYSSYNYWGQGTQVTVSS | low polyreactivity
QVQLVESAGGLVQAGGSLRLSCAASGSTFYAYVMGWYRPAPGKARELVAAISKGGGSTYYADSVKGRFTISRDNAKNTVYLQMNSLKPEDTAVYYCAAYASYSNYRKYNYWGQGTQVTVSS | high polyreactivity
QVQLVESAGGLVQAGGSLRLSCAASGSTIYPNAMGWYRQAPGKERELVAVISSGGSTYYADSVKGRFTISRDNAKNTVYLQMNSLKPEDTAVYYCADERYYFPRSYRYGYWGQGTQVTVSS | low polyreactivity
QVQLVESAGGLVQAGGSLRLSCAASGSTLYPYDMGWYRQAPGKERELVAAIDSGGSTNYADSVKGRFTISRDNAKNTVYLQMNSLKPEDTAVYYCAADASGENDYWGQGTQVTVSS | low polyreactivity
QVQLVESAGGLVQAGGSLRLSCAASGTILWWNAMGRYRPAPGKERELVADITSDGTYADSVKGRFTISRDNAKNTVYLQMNSLKPEDTAVYYCAAVDAYGPGLNGYDYWGQGTQVTVSS | low polyreactivity
QVQLVESAGGLVQAGGSLRLSCAASRRTFARYAIGRYRQAPGQERELVAALSRSGTCTYYADSVLGRFTISRDNAKNTVYLQKNSLKPEDCAVYYCAVDAYLGHYDYWGQGTQVTVSS | high polyreactivity
QVQLVESAGGLVQAGGSLRLSCAASVSTLEYNAMGWYRQAPGNERELVAAITASGGSTYYADSVKGRFTISRDNAKKTVYLQMNSLKPDDTAVYYCATEANQRTLKDTVKDYDYWGQGTQVTVSS | low polyreactivity
QVQLVESAGGLVQAGGSLRLSCDASGYTFNYNTMGCYRQARGKERELVSAINTSGSTDYADSVKGRFTISRDNAKNTDYLLMNRLKPEDTAVYYCAVRVAYKYNYWGQGTQETVSS | high polyreactivity
QVQLVESAGGLVQAGGSLRLTCAASGNIFRRYAMGWYRQAPGKERELVAAISWRSGNTYYADSVKGRFTISRDNAKNTVYLQMNSLKPEDTAVYYCNKDYWWIPQLPHYNYWGQGTQVTVSS | low polyreactivity
QVQLVESAGGLVQAGGSLRVICAASASTSVHNAMGWYRQAPGKERELVAAITSDGSTNYADSVKGRFTISRDNEKNTVYLLMYSLEPEDTAFYYCAALGWTYYVGYVSYSYGYWGQGTQVTVSS | low polyreactivity
QVQLVESAGGLVQAGGSLSLSCAASGFNFKGYAMGSYRQAPGKERELVAAISSSGTSTYYADSVKGRFTISRDNEKNTVYLQMNSLKPEDTAVYYCARVSKRTWSGYYYWGQGTQVTVSS | high polyreactivity
QVQLVESAGGLVQAGGSLSLSCAASGITFIPNPMGWYRQAPGKERELVAAISISGGRTYYADSVKGRFTISRDNAKNTVYLQMNSLKPEDTAVYYCAADRADFFVIRTIDPYDYWGQGTQVTVSS | low polyreactivity
QVQLVESAGGLVQAGGSLSLSCAASGLTFHYYHMGWYRQATGKETELVAAITSSGGRTYYADSVKGRFTISRDNEKNTVFLQMNSLKPEDTAVYFCAADIYPDWIYLLYGYWGQGTQVTVSS | low polyreactivity
QVQLVESAGGLVQAGGSLSLSCAASGRTFSYYAMGWYRHARGKERELVAAISRRGGSTYYADSVKGRLTISRDNAKNTVYLQMISLKPEDTAVDYCNARGRSTVGGGFYYWGLGTQVTVSS | high polyreactivity
QVQLVESAGGLVQAGGSLSLSCAASGSTFYKYTMGWDRQAPGKERELVAAISGSGTTTYYADSVKGRFTISRDNAKNTVYLQMNSLKPEDTAVYYCAAHSRSSSGYHWGQGTQVTVSS | high polyreactivity
QVQLVESAGGLVQAVGSLRLSCDASGSTFSGNDMGWYRQAPGKERELVAAITSSGGSTYYADSVKGRFTISRDNAKNTVYLQMNSLKPEDTAVYYCAAKSRRTRRSYYWGQGTQVTVSS | high polyreactivity
QVQLVESAGGLVQEGGSLRVSCAASGRTFGRYAMGRYRQAPGKEREMVAAITVGGGSTYYADSVKGRFTISRDTAKNTVYLQMNSLKPEDTAVYYCNALHTYTYRYDYYYWGQGTQVTVSS | high polyreactivity
QVQLVESAGRLVQAGGSLRLSCAASGFTFRKNAMGWYRQAPGKERELVAAITFSGGSTYYADSVKGRFTISRDNAKNTVYLQMNSLKPEDTAVYFCGTRYYYHYPRKHIYNYWGQGTQVTVSS | high polyreactivity
QVQLVESAGRLVQAGGSLRLSCSASGSIFDWYAMGWYRQEPGKERELVAAISWSGGSTYYADSVKGRFTISRDNAKNTVYLQMNSLKPEDSAVYYCYAVFLYFNDDKFDNWGQGTQVTVSS | low polyreactivity
QVQLVESAGVLVQAGGRLRLICAACGSIFDYYSLGWYRQAPGKEREMVDTISGGGGTTYYADSVKGRFTISRDNAKNSVYVHMNSLKPEDTAVYYCAADSLGYKYWGQGTQVTVSS | low polyreactivity
